In publication PMC3961330:

Tests used:
[1] = tested on: PPARalpha (rat liver nuclear extract);RXRalpha (rat liver nuclear extract) (rat;rat); experiment: EMSA with anti-PPARalpha supershift; conditions: OEA-treated rats; anti-PPARalpha antibody; 10 mM HEPES pH 7.9, 150 mM KCl, 1 mM DTT, 0.2 ug/uL poly(dI-C), 5% glycerol; 15 min on ice then 15 min with probe at room temperature; 8% native PAGE, 0.5x TBE
[2] = tested on: PPARalpha (rat liver nuclear extract);RXRalpha (rat liver nuclear extract) (rat;rat); experiment: EMSA; conditions: OEA-treated rats; 10 mM HEPES pH 7.9, 150 mM KCl, 1 mM DTT, 0.2 ug/uL poly(dI-C), 5% glycerol; 15 min on ice then 15 min with probe at room temperature; 8% native PAGE, 0.5x TBE

## ACOX-PPRE
[1]
  binding signal (fold vs vehicle (supershifted complex)): > 3
[2]
  binding signal (fold vs vehicle): 2
